The source of these data is US20200199241A1 (Chugai, published 2020).

In one test the target is T1, human FcγRIIa type R (human, UniProt P12318 36-217).
T1 construct: also called FcγRIIaR; FcγRIIa(R)
T1 chain: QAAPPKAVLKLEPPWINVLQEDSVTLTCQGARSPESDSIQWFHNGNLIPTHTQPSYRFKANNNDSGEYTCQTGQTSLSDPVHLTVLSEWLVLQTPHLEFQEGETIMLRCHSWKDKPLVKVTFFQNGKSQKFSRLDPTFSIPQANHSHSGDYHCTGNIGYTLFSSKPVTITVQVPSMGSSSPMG
Briefly: SPR (Biacore), binding amount relative to IL6R-BF648/IL6R-L = 100. (In SPR one partner is held on a chip, and binding of the other changes the refractive index at the surface.)

In a further test the target is T2, human FcγRIIa type H (human, UniProt P12318 36-217).
T2 construct: also called FcγRIIaH; FcγRIIa(H)
T2 sequence: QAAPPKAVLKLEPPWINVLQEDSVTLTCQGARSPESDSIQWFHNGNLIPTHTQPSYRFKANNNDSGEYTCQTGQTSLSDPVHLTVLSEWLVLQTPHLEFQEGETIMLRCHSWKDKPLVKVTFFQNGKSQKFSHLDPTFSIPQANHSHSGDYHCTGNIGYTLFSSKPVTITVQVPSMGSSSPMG
The test is described as above.

In another test the target is T3, human FcγRIa (human, UniProt P12314 16-292, limits assumed).
T3 construct: also called CD64
Described as above.

The next test deals with T4, human FcγRIIb (human, UniProt P31994 43-217, limits assumed).
T4 construct: also called FcγIIB
T4 sequence: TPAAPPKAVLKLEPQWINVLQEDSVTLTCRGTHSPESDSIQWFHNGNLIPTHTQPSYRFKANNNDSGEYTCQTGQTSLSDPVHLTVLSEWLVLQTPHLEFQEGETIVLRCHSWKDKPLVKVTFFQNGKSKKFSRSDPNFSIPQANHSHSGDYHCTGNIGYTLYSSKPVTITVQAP
The test is described as above.

Test [1] concerns the target T5, FcγRIIb (human, UniProt P31994 43-217, limits assumed).
T5 construct: also called FcγIIB; CD32
T5 sequence: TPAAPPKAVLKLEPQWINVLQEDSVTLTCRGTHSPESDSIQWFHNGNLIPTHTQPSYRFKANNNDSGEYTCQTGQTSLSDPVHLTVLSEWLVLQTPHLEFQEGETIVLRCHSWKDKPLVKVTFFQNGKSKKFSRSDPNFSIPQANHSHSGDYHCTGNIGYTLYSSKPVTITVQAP
Briefly: ratio of SPR KD values, parent IL6R-B3/IL6R-L.

The target of test [2] is T5, FcγRIIb. Briefly: SPR (Biacore), method of Example 14.
The target in a further test is T6, FcγRIIa type R (human, UniProt P12318 36-217).
T6 construct: also called FcγRIIaR; FcγRIIa(R)
T6 chain: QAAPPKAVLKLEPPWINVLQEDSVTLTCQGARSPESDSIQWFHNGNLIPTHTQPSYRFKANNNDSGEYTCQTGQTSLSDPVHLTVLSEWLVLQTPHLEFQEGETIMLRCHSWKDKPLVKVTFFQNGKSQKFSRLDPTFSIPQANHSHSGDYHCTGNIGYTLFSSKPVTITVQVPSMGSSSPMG
Nature of the test: SPR (Biacore), method of Example 14.

A further test addresses T7, FcγRIIa type H (human, UniProt P12318 36-217).
T7 construct: also called FcγRIIaH; FcγRIIa(H)
T7 sequence: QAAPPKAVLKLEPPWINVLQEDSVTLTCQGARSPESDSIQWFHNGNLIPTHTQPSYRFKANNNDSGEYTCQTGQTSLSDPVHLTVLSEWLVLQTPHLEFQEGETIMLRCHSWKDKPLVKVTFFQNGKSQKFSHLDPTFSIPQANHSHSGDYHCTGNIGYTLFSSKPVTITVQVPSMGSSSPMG
Briefly: SPR (Biacore), method of Example 14.

In the next test the target is T8, FcγRIa (human, UniProt P12314 16-292, limits assumed).
T8 construct: also called CD64
Briefly: SPR (Biacore), method of Example 14.

T3 sequence (P12314 16-292 limits assumed): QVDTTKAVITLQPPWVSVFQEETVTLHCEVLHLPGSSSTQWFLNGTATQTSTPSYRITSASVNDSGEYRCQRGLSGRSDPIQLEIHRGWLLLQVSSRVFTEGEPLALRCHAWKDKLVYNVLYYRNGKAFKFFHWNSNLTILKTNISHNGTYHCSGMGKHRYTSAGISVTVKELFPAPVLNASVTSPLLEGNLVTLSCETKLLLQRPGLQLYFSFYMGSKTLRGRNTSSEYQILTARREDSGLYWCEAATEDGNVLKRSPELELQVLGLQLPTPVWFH
T8 sequence (P12314 16-292 limits assumed): as above

B1: IL6R-BP112/IL6R-L (antibody, human IgG1)
heavy: QVQLQESGPGLVKPSETLSLTCAVSGHSISHDHAWSWVRQPPGEGLEWIGFISYSGITNYNPSLQGRVTISRDNSKNTLYLQMNSLRAEDTAVYYCARSLARTTAMDYWGEGTLVTVSSASTKGPSVFPLAPSSKSTSGGTAALGCLVKDYFPEPVTVSWNSGALTSGVHTFPAVLQSSGLYSLSSVVTVPSSSLGTQTYICNVNHKPSNTKVDKKVEPKSCDKTHTCPPCPAPELLGGDSVFLFPPKPKDTLMISRTPEVTCVVVDVSHEDGEVKFNWYVDGVEVHNAKTKPREEQYNSTYRVVSVLTVLHQDWLNGKEYKCKVSNKALPAPIEKTISKAKGQPREPQVYTLPPSRDELTKNQVSLTCLVKGFYPSDIAVEWESNGQPENNYKTTPPVLDSDGSFFLYSKLTVDKSRWQQGNVFSCSVMHEALHNHYTQESLSLSP
light: DIQMTQSPSSLSASVGDRVTITCRASQDISSYLNWYQQKPGKAPKLLIYYTSRLHSGVPSRFSGSGSGTDFTFTISSLQPEDIATYYCQQGNTLPYTFGQGTKVEIK
notes: Alteration introduced into IL6R-B3; also called P238D/P271G
Consider B1, for which the relative binding in the test with human FcγRIIa type R worked out at 340; with human FcγRIIa type H, 113; in the test with human FcγRIa, 119; with human FcγRIIb, 157.

B2: IL6R-BP204/IL6R-L (antibody, human IgG1)
heavy: QVQLQESGPGLVKPSETLSLTCAVSGHSISHDHAWSWVRQPPGEGLEWIGFISYSGITNYNPSLQGRVTISRDNSKNTLYLQMNSLRAEDTAVYYCARSLARTTAMDYWGEGTLVTVSSASTKGPSVFPLAPSSKSTSGGTAALGCLVKDYFPEPVTVSWNSGALTSGVHTFPAVLQSSGLYSLSSVVTVPSSSLGTQTYICNVNHKPSNTKVDKKVEPKSCDKTHTCPPCPAPDLLGGDSVFLFPPKPKDTLMISRTPEVTCVVVDVSHEDGEVKFNWYVDGVEVHNAKTKPREEQYNSTYRVVSVLTVLHQDWLNGKEYKCKVSNAALPRPIEKTISKAKGQPREPQVYTLPPSRDELTKNQVSLTCLVKGFYPSDIAVEWESNGQPENNYKTTPPVLDSDGSFFLYSKLTVDKSRWQQGNVFSCSVMHEALHNHYTQESLSLSP
light: DIQMTQSPSSLSASVGDRVTITCRASQDISSYLNWYQQKPGKAPKLLIYYTSRLHSGVPSRFSGSGSGTDFTFTISSLQPEDIATYYCQQGNTLPYTFGQGTKVEIK
notes: Anti-IL-6R human IgG1 variant; copies: 2 + 2
For the molecule B2, in the test with FcγRIIb [1], the “KD(IIb) of the parent polypeptide/KD(IIb) of altered polypeptide” value (from here on “KD(IIb)”) came out at 12.2 fold. Moreover, the Kd – broadly, the concentration at which binding is half-saturated – in the test with FcγRIIb [2] came out at 250 nM; with FcγRIIa type R, 4500 nM; with FcγRIIa type H it was 21000 nM; with FcγRIa it was 7.6 nM.

B3: IL6R-BP205/IL6R-L (antibody, human IgG1)
heavy: QVQLQESGPGLVKPSETLSLTCAVSGHSISHDHAWSWVRQPPGEGLEWIGFISYSGITNYNPSLQGRVTISRDNSKNTLYLQMNSLRAEDTAVYYCARSLARTTAMDYWGEGTLVTVSSASTKGPSVFPLAPSSKSTSGGTAALGCLVKDYFPEPVTVSWNSGALTSGVHTFPAVLQSSGLYSLSSVVTVPSSSLGTQTYICNVNHKPSNTKVDKKVEPKSCDKTHTCPPCPAPDLLGGDSVFLFPPKPKDTLMISRTPEVTCVVVDVSHEDGEVKFNWYVDGVEVHNAKTKPREEQDNSTYRVVSVLTVLHQDWLNGKEYKCKVSNKALPRPIEKTISKAKGQPREPQVYTLPPSRDELTKNQVSLTCLVKGFYPSDIAVEWESNGQPENNYKTTPPVLDSDGSFFLYSKLTVDKSRWQQGNVFSCSVMHEALHNHYTQESLSLSP
light: DIQMTQSPSSLSASVGDRVTITCRASQDISSYLNWYQQKPGKAPKLLIYYTSRLHSGVPSRFSGSGSGTDFTFTISSLQPEDIATYYCQQGNTLPYTFGQGTKVEIK
notes: as for B2
On to B3, for which the “KD(IIb)” value in the test with FcγRIIb [1] turned out to be 19.4 fold. The Kd with FcγRIIb [2] was found to be 160 nM; with FcγRIIa type R, 3500 nM; with FcγRIIa type H it was 28000 nM; with FcγRIa, 7.7 nM.

B4: IL6R-BP120/IL6R-L (antibody, human IgG1)
heavy: QVQLQESGPGLVKPSETLSLTCAVSGHSISHDHAWSWVRQPPGEGLEWIGFISYSGITNYNPSLQGRVTISRDNSKNTLYLQMNSLRAEDTAVYYCARSLARTTAMDYWGEGTLVTVSSASTKGPSVFPLAPSSKSTSGGTAALGCLVKDYFPEPVTVSWNSGALTSGVHTFPAVLQSSGLYSLSSVVTVPSSSLGTQTYICNVNHKPSNTKVDKKVEPKSCDKTHTCPPCPAPELLGGDSVFLFPPKPKDTLMISRTPEVTCVVVDVSHEDPEVKFNWYVDGVEVHNAKTKPREEQYNSTYRVVSVLTVLHQDWLNGKEYKCKVSNEALPAPIEKTISKAKGQPREPQVYTLPPSRDELTKNQVSLTCLVKGFYPSDIAVEWESNGQPENNYKTTPPVLDSDGSFFLYSKLTVDKSRWQQGNVFSCSVMHEALHNHYTQESLSLSP
light: DIQMTQSPSSLSASVGDRVTITCRASQDISSYLNWYQQKPGKAPKLLIYYTSRLHSGVPSRFSGSGSGTDFTFTISSLQPEDIATYYCQQGNTLPYTFGQGTKVEIK
notes: Alteration introduced into IL6R-B3; also called P238D/K326E
Turning to B4, the figures for the relative binding with human FcγRIIa type R, in the test with human FcγRIa and in the test with human FcγRIIb were 175, 125 and 114, respectively.

B5: IL6R-BP212/IL6R-L (antibody, human IgG1)
heavy: QVQLQESGPGLVKPSETLSLTCAVSGHSISHDHAWSWVRQPPGEGLEWIGFISYSGITNYNPSLQGRVTISRDNSKNTLYLQMNSLRAEDTAVYYCARSLARTTAMDYWGEGTLVTVSSASTKGPSVFPLAPSSKSTSGGTAALGCLVKDYFPEPVTVSWNSGALTSGVHTFPAVLQSSGLYSLSSVVTVPSSSLGTQTYICNVNHKPSNTKVDKKVEPKSCDKTHTCPPCPAPDLLGGDSVFLFPPKPKDTLMISRTPEVTCVVVDVSDEDGEVKFNWYVDGVEVHNAKTKPREEQDNSTYRVVSVLTVLHQDWLNGKEYKCKVSNKALPRPIEKTISKAKGQPREPQVYTLPPSRDELTKNQVSLTCLVKGFYPSDIAVEWESNGQPENNYKTTPPVLDSDGSFFLYSKLTVDKSRWQQGNVFSCSVMHEALHNHYTQESLSLSP
light: DIQMTQSPSSLSASVGDRVTITCRASQDISSYLNWYQQKPGKAPKLLIYYTSRLHSGVPSRFSGSGSGTDFTFTISSLQPEDIATYYCQQGNTLPYTFGQGTKVEIK
notes: as for B2
Consider B5, for which the “KD(IIb)” value in the test with FcγRIIb [1] is 18.7 fold. Moreover, the equilibrium dissociation constant (Kd) with FcγRIIb [2] was 170 nM; in the test with FcγRIIa type R, 3500 nM; with FcγRIIa type H, 22000 nM; with FcγRIa, 5.2 nM.

B6: IL6R-BP117/IL6R-L (antibody, human IgG1)
heavy: QVQLQESGPGLVKPSETLSLTCAVSGHSISHDHAWSWVRQPPGEGLEWIGFISYSGITNYNPSLQGRVTISRDNSKNTLYLQMNSLRAEDTAVYYCARSLARTTAMDYWGEGTLVTVSSASTKGPSVFPLAPSSKSTSGGTAALGCLVKDYFPEPVTVSWNSGALTSGVHTFPAVLQSSGLYSLSSVVTVPSSSLGTQTYICNVNHKPSNTKVDKKVEPKSCDKTHTCPPCPAPELLGGDSVFLFPPKPKDTLMISRTPEVTCVVVDVSHEDPEVKFNWYVDGVEVHNAKTKPREEQYNSTYRVVSVLTVLHQDWLNGKEYKCKVSNDALPAPIEKTISKAKGQPREPQVYTLPPSRDELTKNQVSLTCLVKGFYPSDIAVEWESNGQPENNYKTTPPVLDSDGSFFLYSKLTVDKSRWQQGNVFSCSVMHEALHNHYTQESLSLSP
light: DIQMTQSPSSLSASVGDRVTITCRASQDISSYLNWYQQKPGKAPKLLIYYTSRLHSGVPSRFSGSGSGTDFTFTISSLQPEDIATYYCQQGNTLPYTFGQGTKVEIK
notes: Alteration introduced into IL6R-B3; also called P238D/K326D
As to B6, the relative binding with human FcγRIIa type R turned out to be 166; with human FcγRIIa type H, 96; with human FcγRIa, 124; with human FcγRIIb, 118.

B7: IL6R-BP210/IL6R-L (antibody, human IgG1)
heavy: QVQLQESGPGLVKPSETLSLTCAVSGHSISHDHAWSWVRQPPGEGLEWIGFISYSGITNYNPSLQGRVTISRDNSKNTLYLQMNSLRAEDTAVYYCARSLARTTAMDYWGEGTLVTVSSASTKGPSVFPLAPSSKSTSGGTAALGCLVKDYFPEPVTVSWNSGALTSGVHTFPAVLQSSGLYSLSSVVTVPSSSLGTQTYICNVNHKPSNTKVDKKVEPKSCDKTHTCPPCPAPELLGDDSVFLFPPKPKDTLMISRTPEVTCVVVDVSDEDGEVKFNWYVDGVEVHNAKTKPREEQYNSTYRVVSVLTVLHQDWLNGKEYKCKVSNKALPRPIEKTISKAKGQPREPQVYTLPPSRDELTKNQVSLTCLVKGFYPSDIAVEWESNGQPENNYKTTPPVLDSDGSFFLYSKLTVDKSRWQQGNVFSCSVMHEALHNHYTQESLSLSP
light: DIQMTQSPSSLSASVGDRVTITCRASQDISSYLNWYQQKPGKAPKLLIYYTSRLHSGVPSRFSGSGSGTDFTFTISSLQPEDIATYYCQQGNTLPYTFGQGTKVEIK
notes: as for B2
As to B7, in the test with FcγRIIb [1], the “KD(IIb)” value was found to be 78.4 fold. The Kd in the test with FcγRIIb [2] was found to be 39 nM; with FcγRIIa type R, 1000 nM; in the test with FcγRIIa type H it was 95000 nM; with FcγRIa it was 65 nM.
